In EP3381935A1 (Tigo GmbH, dated 2018):

B1: K88Q (138 aa) (ligand, human, UniProt P01579 24-161, looked up)
chain: QDPYVKEAENLKKYFNAGHSDVADNGTLFLGILKNWKEESDRKIMQSQIVSFYFKLFKNFKDDQSIQKSVETIKEDMNVKFFNSNKKQRDDFEKLTNYSVTDLNVQRKAIHELIQVMAELSPAAKTGKRKRSQMLFRG
notes: range 1-138; also called Control 3: K88Q(138 aa); Control 2: K88Q
B2: reference hIFN-γ (143 aa) (ligand, human, UniProt P01579 24-161, looked up)
chain: QDPYVKEAENLKKYFNAGHSDVADNGTLFLGILKNWKEESDRKIMQSQIVSFYFKLFKNFKDDQSIQKSVETIKEDMNVKFFNSNKKKRDDFEKLTNYSVTDLNVQRKAIHELIQVMAELSPAAKTGKRKRSQMLFRG
notes: mature; also called standard hIFN-γ; wild type hIFN-γ
B3: anti-gamma mutant protein K88Q_D41N (138 aa) (ligand)
chain: QDPYVKEAENLKKYFNAGHSDVADNGTLFLGILKNWKEESNRKIMQSQIVSFYFKLFKNFKDDQSIQKSVETIKEDMNVKFFNSNKKQRDDFEKLTNYSVTDLNVQRKAIHELIQVMAELSPAAKTGKRKRSQMLFRG
B4: anti-gamma mutant protein K88Q_T27Y (138 aa) (ligand)
chain: QDPYVKEAENLKKYFNAGHSDVADNGYLFLGILKNWKEESDRKIMQSQIVSFYFKLFKNFKDDQSIQKSVETIKEDMNVKFFNSNKKQRDDFEKLTNYSVTDLNVQRKAIHELIQVMAELSPAAKTGKRKRSQMLFRG
notes: Expressed in E. coli as a HIS-SUMO fusion and the tag was cleaved off; Positions count on the mature 143 aa hIFN-γ

Experiments:
[1] = target: T1, recombinant hIFN-γ receptor (the extracellular part of the IFNGR1) (human, UniProt P15260 18-245); assay: ITC, IFNGR1 in the cell titrated with ligand, 20°C
T1 construct: extracellular domain; In solution for ITC; also called soluble (extracellular) part of the hIFN-γ receptor IFNGR1; interferon-gamma receptor
T1 sequence (looked up): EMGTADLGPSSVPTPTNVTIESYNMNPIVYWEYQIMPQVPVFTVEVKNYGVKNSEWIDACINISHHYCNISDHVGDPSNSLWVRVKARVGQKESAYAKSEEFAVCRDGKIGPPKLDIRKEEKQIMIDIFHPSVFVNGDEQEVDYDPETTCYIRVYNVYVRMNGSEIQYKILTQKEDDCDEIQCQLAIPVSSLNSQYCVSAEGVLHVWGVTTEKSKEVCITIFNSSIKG

[2] = target: T2, hIFN-γ receptor on human amniotic WISH cells (human, UniProt P15260 18-489); assay: cell-based or functional assay
T2 sequence (looked up): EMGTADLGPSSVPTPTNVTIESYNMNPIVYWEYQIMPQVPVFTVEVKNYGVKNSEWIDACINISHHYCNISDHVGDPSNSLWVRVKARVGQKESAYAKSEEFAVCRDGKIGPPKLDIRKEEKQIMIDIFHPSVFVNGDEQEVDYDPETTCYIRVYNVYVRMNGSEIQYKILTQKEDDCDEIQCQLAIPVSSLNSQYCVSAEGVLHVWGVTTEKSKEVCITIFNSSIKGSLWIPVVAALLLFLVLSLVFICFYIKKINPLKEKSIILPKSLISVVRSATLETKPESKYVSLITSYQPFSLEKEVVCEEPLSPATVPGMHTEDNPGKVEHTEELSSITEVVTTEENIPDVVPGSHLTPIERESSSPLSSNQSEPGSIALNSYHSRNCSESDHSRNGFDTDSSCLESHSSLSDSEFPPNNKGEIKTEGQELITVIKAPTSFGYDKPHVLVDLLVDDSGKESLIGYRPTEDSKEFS

Binder	Kd [1]	Competitive ability % [2]
B1	18.9 nM	25%
B2	136 nM	
B3		30%
B4	28.2 nM	35%
